Key:
HIV-1 LTR = assay: HIV-1 reporter transcription, transient co-transfection; type: cell-based, human
Description: Cell culture, transfection, and reporter gene assays. The E1A-transformed, human kidney cell line, 293, and NIH-3T3 cells were maintained in Dulbecco's Modified Eagle Medium (DMEM) supplemented with 10% fetal calf serum and penicillin-streptomycin at 37° C. in 5% carbon dioxide in tissue culture grade Petri dishes. PRMT-2−/− mouse embryo fibroblasts (MEFs) and wild type MEFs were prepared from day 13.5 embryos and maintained in DMEM supplemented with 10% fetal calf serum. MEFs at passage 4 were used in this experiment. Lipofectamine Plus™ reagent (Boehringer Mannheim) was used to transfect both 293 and NIH-3T3 cells according to directions from the manufacturer. […] TNF-α stimulation of cells was done using recombinant TNF-α (200 U/ml) for 12 hours. Transfected cells were harvested at 36 hours, and CAT activity was assayed on 10 to 100 μg of protein from whole cell extracts. CAT assays were performed essentially as described in Leung, K. & Nabel, G. J. Nature 333, 776-778 (1988). To analyze the κB-reporter activity in MEFs, cells were transfected with the reporter (2×kB-Luc) and PRL-TK vector (Promega) using FuGENE6 transfection reagent (Roche). Luciferase activity was analyzed by Dual-Luciferase Reporter Assay System (Promega).
To determine whether PRMT-1, 2 or 3 could affect NF-κB function, their potential to regulate effects on transcription of the human immunodeficiency virus type 1 (HIV-1) was examined. Transient co-transfections were performed using PRMT1, PRMT2 and PRMT3 expression plasmids with an HIV-1 reporter plasmid in the human renal epithelial cell line, 293T.
To determine its dependence on NF-κB, human immunodeficiency virus type 1 (HIV-1) reporter plasmids with wild-type (WT) or mutant (ΔκB) sites were co-transfected transiently with control or PRMT2 expression plasmids in the different cell lines. […] The KB effect was dose-dependent and was also observed with other inducers of NF-κB, including phorbol […] (PMA) (FIG. 2B, right panel).

IκB-α = assay: Immunoblot of nuclear IκB-α in transfected 293 cells; type: cell-based, human; conditions: transfected cells stimulated with TNF-α, vs PRMT2-N
Description: Small-scale preparation of nuclear extracts. A modified Dignam procedure (Dignam et al., Nucleic Acids Res. 11: 1475-89 (1983)) was used to prepare nuclear extracts from 293 cells. Cells were harvested, washed with PBS, resuspended in 1 ml Dignam buffer A, and transferred to pre-chilled microfuge tubes, which were spun at 1000 rpm for 1 minute. The supernatant was aspirated thoroughly, and pellets were carefully resuspended to avoid frothing, in 60 μl modified Dignam buffer A containing 0.1% Nonidet P-40 (NP40). Samples were incubated at 4° C. for approximately 10 minutes, and microcentrifuged for 10 minutes at 4° C. The cytoplasmic extract supernatant was diluted in 3 volumes of modified Dignam buffer D and frozen quickly. The pellets were resuspended in 40 μl Dignam buffer C. Samples were incubated for 15 minutes at 4° C. on a tumbler, and centrifuged again for 5 minutes at 4° C. The supernatant was diluted with 6 volumes of modified Dignam buffer D. Samples were frozen quickly in aliquots and stored at −70° C.
Western Blotting. Proteins resolved by SDS-polyacrylamide gel electrophoresis (PAGE) were transferred to polyvinylidene difluoride (PVDF) membranes. […]

B1: PRMT2: human PRMT-2 polypeptide, SEQ ID NO:2, expressed from pVR1012 vector with HA-tag (protein, listed as Homo sapiens)
chain: MATSGDCPRSESQGEEPAECSEAGLLQEGVQPEEFVAIADYAATDETQLSFLRGEKILILRQTTADWWWGERAGCCGYIPANHVGKHVDEYDPEDTWQDEEYFGSYGTLKLHLEMLADQPRTTKYHSVILQNKESLTDKVILDVGCGTGIISLFCAHYARPRAVYAVEASEMAQHTGQLVLQNGFADIITVYQQKVEDVVLPEKVDVLVSEWMGTCLLFEFMIESILYARDAWLKEDGVIWPTMAALHLVPCSADKDYRSKVLFWDNAYEFNLSALKSLAVKEFFSKPKYNHILKPEDCLSEPCTILQLDMRTVQISDLETLRGELRFDIRKAGTLHGFTAWFSVHFQSLQEGQPPQVLSTGPFHPTTHWKQTLFMMDDPVPVHTGDVVTGSVVLQRNPVWRRHMSVALSWAVTSRQDPTSQKVGEKVFPIWR
modifications: HA tag
inhibition of HIV-1 transcription (HIV-1 LTR; 293T cells, expression plasmid co-transfected with HIV-1 reporter plasmid): about 50 fold
HIV-1 transcription from wild-type reporter (HIV-1 LTR; 293 cells, basal and TNF-α-dependent): significantly inhibited both basal and TNF-α-dependent HIV-1 transcription
increase in nuclear IκB-α protein levels over the mutant control (IκB-α): ~8 fold

Reference: patent publication US20060239990A1, “Protein Arginine N-Methyltransferase 2 (PRMT-2)” (priority 2003, published 2006)
